How the values were obtained:
[1] = target: the molecule itself; assay: size-exclusion chromatography; self-crosslinking
[2] = target: the molecule itself; assay: size-exclusion chromatography; self-association

B1: SnAP-body variant 1 (anti-CD33) (antibody, human IgG1, kappa)
heavy: not shown
light: QIVLTQSPAIMSASPGEKVTITCSASSSISYMHWFQQRTNGSPRLWIYTTSNLASGVPARFSGSGSGTSYSLTISRMEAEDEADYYCHQRSTYPLTFGAGTKLELKRTVAAPSVFIFPPSDEQLKSGTASVVCLLNNFYPREAKVQWKVDNALQSGNSQESVTEQDSKDSTYSLSSTLTLSKADYEKHKVYACEVTHQGLSSPVTKSFNRGEC
notes: also called self-crosslinking antibody; Anti-CD33 SnAP-body variant 1
- binding result [1]: binds

B2: SnAP-body variant 3 (anti-CD33) (antibody, human IgG1, kappa)
heavy: not shown
light: B1 light
notes: also called self-crosslinking antibody
- binding result [1]: binds

B3: control antibody (meditope-enabled gemtuzumab IgG1 without meditope or linker) (antibody)
heavy: not shown
light: B1 light
notes: IgG1; also called control gemtuzumab antibody; gemtuzumab control antibody
- binding result [2]: no binding

B4: SnAP-body variant 2 (anti-CD33) (antibody, human IgG1, kappa)
heavy: not shown
light: B1 light
notes: also called self-crosslinking antibody; Anti-CD33 SnAP-body variant 2
- binding result [1]: binds
